The target of assay [1] is T1, FAM19A5 mutants M1 to M8 (Homo sapiens, UniProt Q7Z5A7, D98Q/K92L/K94R/L100E/P101L/Q95W/T93Q).
T1 construct: made in house; host or cells: phage display with helper phage
Put plainly: Epitope mapping ELISA with FAM19A5 mutants M1-M8. The assay is classed as binding. The method, then:
(§1) To further characterize the binding epitopes of the anti-FAM19A5 antibodies disclosed in the present disclosure, the amino acid sequences for the different FAM19 family members (i.e., FAM19A1-5) were aligned. […] The amino acid sequences of these regions were replaced with the consensus sequence of the corresponding regions for the FAM19A1-4 proteins. See Table 13 (the mutated amino acid residues are bolded and underlined).
(§2) The mutant FAM19A5-expressing phages were prepared as follows. To prepare the media for phage culture, 55.6 ml of 2M Glucose (D-(+)-Glucose, Sigma), 5 mL of 1M MgCl2 (Magnesium chloride, Junsei) 1 mL of 34 mg/mL chloramphenicol (Sigma) were added to 2×YT media. Colonies obtained through mono-phage ELISA were selected and placed in 5 mL of prepared media (2×YT-GMC) to be cultured for 16 hours at 37° C. with shaking incubator (VS-8480, Vision). 100 μL of each culture was transferred to 10 mL 2×YT-GMC individually which were cultured at 37° C. in the incubator until detection value at O.D. 600 nm reached 0.5. Once detection value has reached 0.5 at O.D. 600 nm, 5 mL of each culture were obtained as samples to be infected. Following sample preparation, 50 μL of […] was added to individual samples then incubated at 37° C. without shaking for 30 minutes and with shaking for additional 30 minutes. Individual cultures were centrifuged for 15 minutes at 3,850 rpm using Micro centrifuge (Micro12, Hanil). The supernatants of centrifuged cultures were removed to be kept separate and replaced with 5 mL of 2×YT media containing 1 mL of IM IPTG (AG Scientific), 5 mL of 1M MgCl2.1 ml of 70 μg/μL kanamycin (Biopure) and 1 mL of Chloramphenicol. The resulting pellets were dispersed thoroughly in newly added media followed by incubation at 30° C. for 16 hours with stirring.
A general note: ELISA stands for enzyme-linked immunosorbent assay.

The target in assay [2] is T2, FAM19A5 mutants M1 to M8 (Homo sapiens, UniProt Q7Z5A7, D109K/G107E/I112P/L110T/N113D/R114N).
T2 construct: made in house; host or cells: phage display with helper phage
Description: Epitope mapping ELISA with FAM19A5 mutants M1-M8. The assay is classed as binding. As for the experimental part:
as §1, §2

Assay [3] addresses T3, FAM19A5 mutants M1 to M8 (Homo sapiens, UniProt Q7Z5A7).
T3 construct: made in house; host or cells: phage display with helper phage
Put plainly: Epitope mapping ELISA with FAM19A5 mutants M1-M8. It is filed as binding. The method, then: as §1, §2

In assay [4] the target is FAM19A5 antigen (Homo sapiens, UniProt Q7Z5A7). Description: Cross-competition two-site sandwich ELISA. It is filed as binding. The conditions noted are these: antibodies 1-65, P2-A03, P2-F11, 13B4, 2-13, 3-2; cross-competition = S/N ratio lower than 2. The method, then: The term “S/N” refers to the signal to noise ratio, which is measured as follows: [O.D. of 10 ng/ml antigen]/[O.D. of 0 ng/ml antigen].
Next, a two-site sandwich ELISA was used as described below to assess whether the different anti-FAM19A5 antibodies with similar binding epitopes cross-compete with each other.
First, the indicated anti-FAM19A5 antibodies were diluted in 1×PBS to a concentration of 10 μg/mL. The diluted anti-FAM19A5 antibodies (10 μg/mL in 1×PBS) (“capture antibody”) were used to coat the 96-well plates (100 μL/well) at 37° C. for approximately 1 hour. After the incubation, the plates were washed with the washing buffer (0.01% Tween-20/PBS; also called 0.01% PBST) for a total of five washes, blocked with the blocking solution (5% BSA/PBS; also called 5% PBSA) (250 μL/well) for one hour at 37° C., and then washed again. Next, 100 μg/mL of the FAM19A5 antigen (diluted in PBS containing 5% BSA, 0.01% Tween-20; also called 5% PBSAT; “diluent buffer) was added to each of the wells, and the 96-well plates were incubated for 2 hours at 37° C. After the incubations, the plates were washed using 0.01% PBST for a total of five washes. After the final wash, the indicated biotinylated anti-FAM19A5 antibodies (“detection antibody”) (diluted to lug/mL in 5% PBSAT) were added to the relevant wells (100 μL volume) and the plates were incubated for an additional 1 hour at 37° C. Afterwards, the plates were washed again with 0.01% PBST (five total washes). Next, 100 μL of the diluted (1/2000 in 5% PBSAT) Streptavidin-HRP (1 mg/mL, Sigma, USA) was added to the wells, and the plates were incubated for 30 minutes at room temperature. The plates were then washed and treated with 100 μL of the TMB substrate ([…], Thermo Fisher Scientific). After an additional 30-minute incubation at room temperature, the color change reaction was induced by the addition of the TMB substrate. This reaction was stopped using 50 μL of sulfuric acid (2N H2SO4), and the extent of color change was detected via absorption at 450 nm with reference wavelength at 620 nm using a 96 well microplate reader (Molecular Device).

Assay [5] deals with FAM19A5 epitope fragment F5 mutant peptides F5-1 to F5-8. Put plainly: ELISA binding to mutant F5 peptide fragments (alanine substitution). The arrangement: species or system human. The method, then: (§3) Overlapping peptide fragments (F1-F6 epitope fragments; SEQ ID NOs: 178-183) of the human FAM19A5 protein were synthesized and conjugated to BSA (SEQ ID NOs: 322-327). Binding of the different anti-FAM19A5 antibodies to the BSA-conjugated peptide fragments F1-F6 was determined by Western blot analysis or ELISA assay. For the Western blot analysis, BSA-conjugated FAM19A5 fragments F1-F6 were separated by SDS polyacrylamide gel electrophoresis and transferred to a nitrocellulose membrane by the standard procedure. The membrane was incubated with the anti-FAM19A5 antibody (e.g., 1-65, […], 1-65-scFv-rabbit Fc-SSS), and the antigen-antibody complexes were detected with the appropriate secondary antibody conjugated with horse-radish peroxidase (anti-rabbit IgG (Fc specific)-HRP, 1:4000 dilution). For the ELISA assay, the following protocol was used. FAM19A5 fragment F1-F6 (diluted to 1 μg/mL in 50 mM carbonate buffer (Biosesang) or to 20 μg/mL for high concentration analysis) were used to coat the wells of 96-well immuno plates (Thermo Scientific) (100 μL/well) overnight at 4° C. and then subsequently washed twice in 1×PBS. The plates were then blocked with the blocking buffer (100 μL/well) for 1 hour at room temperature. During the 1-hour incubation, the relavant anti-FAM19A5 antibodies were diluted to 1 μg/mL (or 20 μg/mL for high concentration analysis) in the diluent buffer. Once the plates were washed (2× using 1×PBS), the diluted anti-FAM19A5 antibodies were added to the appropriate wells, and the plates were incubated at room temperature for 1 hour. The plates were subsequently washed for a total of five times using the washing buffer. Next, the ODP substrate (prepared by dissolving one ODP tablet (O-phenylenediamine Dihydrochloride, Thermo) into 9 mL of sterilized deionized water and 1 mL of 10× stable Peroxide Stable buffer (Theromo)) was added to each of the wells, and the color change reaction was allowed to occur for 10 minutes. This reaction was stopped by adding 100 μL of 2N H2SO4 (Daejung) to the wells. The absorption value of each of the wells was detected at 492 nm using a 96-well microplate reader (Molecular Device).
Next, to identify the specific amino acid residues within the eptitope fragment F5 that the 1-65 and P2-C12 antibodies bind to, different amino acid residues of the F5 fragment were replaced with alanine as shown in Table 11 (below). The mutated residues are bolded and underlined. The binding affinity of the indicated anti-FAM19A5 antibodies were measured using an ELISA assay as described above.

Assay [6] has as its system human FAM19A5 protein epitope fragments F1-F6. Put plainly: Epitope mapping: binding to BSA-conjugated FAM19A5 epitope fragments F1-F6 (Western blot / ELISA). The conditions noted are these: for binding to epitope fragment F5: Western blot and/or ELISA. The method, then:
as §3
In general terms: Immunoblotting shows a protein as a band on a membrane.

Assay [7] has as its system FAM19A5 epitope fragment F2 mutant peptides. Description: ELISA binding to mutant F2 peptide fragments (alanine scanning). The arrangement: species or system human. An excerpt:
FIGS. 25A-25J provide the results of the alanine scanning analysis, showing the specific amino acid residues in the epitope F2 fragment that are important for the binding of the various 3-2 antibody variants to FAM19A5 protein. FIGS. 25A, 25B, 25C, and 25D show the results for the following antibodies generated in HEK293F cells: (A) wild-type 3-2 antibody, (B) 1-30 antibody, (C) 1-32 antibody, and (D) 6-10 antibody, respectively. FIGS. 25E, 25F, 25G, 25H, 25I, and 25J show the results for the following antibodies generated in CHO cells: (E) 1-17 antibody, (F) 1-30 antibody, (G) 1-32 antibody, (H) 4-11 antibody, (I) 6-10 antibody, and (J) low-PI antibody, respectively. […] Binding of the antibodies to the different mutant peptides was measured using ELISA.
Overlapping peptide fragments (F1-F6 epitope fragments; SEQ ID NOs: 178-183) of the human FAM19A5 protein were synthesized and conjugated to BSA (SEQ ID NOs: 322-327). Binding of the different anti-FAM19A5 antibodies to the BSA-conjugated peptide fragments F1-F6 was determined by Western blot analysis or ELISA assay. […] The membrane was incubated with the anti-FAM19A5 antibody (e.g., 1-65, […], 1-65-scFv-rabbit Fc-SSS), and the antigen-antibody complexes were detected with the appropriate secondary antibody conjugated with horse-radish peroxidase (anti-rabbit IgG (Fc specific)-HRP, 1:4000 dilution). […]

Assay [8] has as its target T4, FAM19A5 mutants M1 to M8 (Homo sapiens, UniProt Q7Z5A7, D53C/P57N/Q56K/S54C/S55N).
T4 construct: made in house; host or cells: phage display with helper phage
Put plainly: Epitope mapping ELISA with FAM19A5 mutants M1-M8. The assay is classed as binding. The method, then: as §1, §2

From patent publication US20260265360A1, “USE OF ANTI-FAM19A5 ANTAGONISTS FOR TREATING HEARING DISORDERS” (NEURACLE SCIENCE CO., LTD., priority 2023, published 2026) come the findings set out here.

T3 sequence (Q7Z5A7 with tags, fused parts or gaps isoform Q7Z5A7-2, change not shown): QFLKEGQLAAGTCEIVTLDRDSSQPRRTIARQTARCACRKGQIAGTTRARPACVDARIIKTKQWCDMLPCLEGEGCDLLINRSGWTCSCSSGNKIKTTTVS
T1 sequence (Q7Z5A7 26-125 isoform Q7Z5A7-2 K85L/T86Q/K87R/Q88W/D91Q/L93E/P94L): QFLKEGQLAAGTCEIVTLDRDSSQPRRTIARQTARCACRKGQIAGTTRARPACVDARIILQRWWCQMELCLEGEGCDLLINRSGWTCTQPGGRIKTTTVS
FAM19A5 antigen, sequence (Q7Z5A7 44-132): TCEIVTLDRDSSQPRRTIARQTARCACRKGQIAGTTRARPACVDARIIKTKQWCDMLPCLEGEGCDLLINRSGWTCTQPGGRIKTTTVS
T2 sequence (Q7Z5A7 26-125 isoform Q7Z5A7-2 G100E/D102K/L103T/I105P/N106D/R107N): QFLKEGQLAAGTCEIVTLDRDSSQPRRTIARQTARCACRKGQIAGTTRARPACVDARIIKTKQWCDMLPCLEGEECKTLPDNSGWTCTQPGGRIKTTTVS
T4 sequence (Q7Z5A7 26-125 isoform Q7Z5A7-2 D46C/S47C/S48N/Q49K/P50N): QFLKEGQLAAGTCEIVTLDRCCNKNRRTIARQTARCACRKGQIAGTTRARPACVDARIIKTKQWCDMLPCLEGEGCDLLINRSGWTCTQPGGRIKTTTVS

B1: 13B4: anti-FAM19A5 antibody; VH SEQ ID NO: 156, VL SEQ ID NO: 167 (antibody, V domains shown)
VH: QVQLQESGPGLVKPSGTLSLNCAVSGGSISSSNWWSWVRQPPGKGLEWIGEIYHGGTTNYNPSLKGRVTMSVDKTKNQFSLRLSSVTAVDTAVYYCARWQLVGGLDVWGQGTTVTVSS
VL: SYELTQPLSVSVSPGQTASITCSGDKLGNVYASWYQQKPGQSPTLVIYQDNKRPSGIPERFSGSNSGKTATLTISGTQALDEADYYCQAWDSSTAVFGGGTKLTVL
modifications: 13B4 VH; 13B4 VL
As to B1, the “binding to FAM19A5 mutant M6” value in assay [1] is reported as “failed to bind”. In addition, the “binding to FAM19A5 mutant M7” value in assay [2] is given as “reduced binding”. For the same molecule, the “binding to FAM19A5 mutant M8” value in assay [3] was “failed to bind”. In assay [4], the “cross-competition with the other anti-FAM19A5 antibodies” value was “cross-competed with one another”.

B2: P2-C12: anti-FAM19A5 antibody; VH SEQ ID NO: 155, VL SEQ ID NO: 166 (antibody, V domains shown)
VH: QSLEESGGRLVTPGTPLTLTCTVSGFSLSTYAVTWVRQAPGKGLEWIGYINWRGGTSYANWAKGRFTISKTSSTTVDLKMTSPTTEDTATYFCARDASSGAAFGSYGMDPWGPGTLVTVSS
VL: ELDMTQTPSSVSAAVGGTVTIKCQASQSISSYLSWYQQKPGQPPKLLIYEASKLASGVPSRFSGSGYGTEFTLTISDLECADAATYYCQQGYSSTNVWNAFGGGTNVEIK
modifications: P2-C12 VH; P2-C12 VL
For the molecule B2, in assay [5], the “binding to F5 mutant peptides #1, 6, and 8” value was “not to mutant peptides #1, 6, and 8”; the “binding to F5 mutant peptides #2, 3, 4, 5, and 7” value is reported as “high binding”. Moreover, the “binding to FAM19A5 mutant M6” value in assay [1] is reported as “failed to bind”. Moreover, the “binding to FAM19A5 mutant M8” value in assay [3] is on record as “strongly binding”. The “binding to the other fragments (F1-F4 and F6)” value in assay [6] (ELISA) was “not significantly”. Besides, the “binding to epitope fragment F5” value in assay [6] is listed as “strongly”.

B3: 1-28: anti-FAM19A5 antibody; VH SEQ ID NO: 38, VL SEQ ID NO: 42 (antibody, V domains shown)
VH: AVTLDESGGGLQTPGGALSLVCKASGFDFSDYGMGWVRQAPGKGLEWVAAIRSDGSNPSYGSAVKGRATISKDNGRSTVRLQLNNLRAEDTATYYCAKDGNGYCALDAYRSGGYSCGVYPGSIDAWGHGTEVIVSS
VL: ALTQPSSVSANLEGTVEITCSGSGYGYGWYQQKSPGSAPVTVIYQNDKRPSDIPSRFSGSKSGSTGTLTITGVQVEDEAVYYCGSEDSSTLAGIFGAGTTLTVL
modifications: 1-28 VH; 1-28 VL
In the case of B3, in assay [7], the “binding to mutant F2 peptide fragments #1, 2, 6, and 8-13” value is reported as “bound strongly”; the “binding to mutant F2 peptide fragments #3, 4, 5, and 7” value was “much reduced binding”. The “binding to FAM19A5 mutant M2” value in assay [8] is recorded as “failed to bind”.

B4: 1-65: anti-FAM19A5 antibody; VH SEQ ID NO: 37, VL SEQ ID NO: 41 (antibody, V domains shown)
VH: AVTLDESGGGLQTPGGALSLVCKASGFTFSSYQMGWVRQAPGKGLEWVGVINKSGSDTSYGSAVKGRATISRDNGQSTVRLQLNNLRAEDTGTYFCAKGSASYITAATIDAWGHGTEVIVSS
VL: ALTQPSSVSANPGETVKITCSGGGSSGYGYGWYQQKSPSSAPLTVIYWNDKRPSDIPSRFSGSKSGSTHTLTITGVQAEDEAVYFCGNDDYSSDSGYVGVFGAGTTLTVL
modifications: 1-65 VH; 1-65 VL
Take B4: the “binding to F5 fragment with D13, L14, I16 or R18 mutated to alanine” value in assay [5] (numbering per SEQ ID NO: 275) is reported as “no longer able to bind”. Moreover, in assay [5] (similar affinity), the “binding to F5 mutant peptides #1, 5, 6, and 7” value is “able to bind”. Besides, the “binding to FAM19A5 mutant M6” value in assay [1] is on record as “failed to bind”. Moreover, the “binding to FAM19A5 mutant M7” value in assay [2] is recorded as “failed to bind”. In addition, in assay [3], the “binding to FAM19A5 mutant M8” value is “failed to bind”. Besides, the “binding to epitope fragment F5” value in assay [6] is “bound strongly”. Further, the “cross-competition with the other anti-FAM19A5 antibodies” value in assay [4] was “cross-competed with one another”.
